Legend:
cFN^ΔRGD (mouse) = cFN^ΔRGD (mouse) (UniProt P11276)

Sequence of cFN^RGE (mouse), P11276 (P11276 33-2477): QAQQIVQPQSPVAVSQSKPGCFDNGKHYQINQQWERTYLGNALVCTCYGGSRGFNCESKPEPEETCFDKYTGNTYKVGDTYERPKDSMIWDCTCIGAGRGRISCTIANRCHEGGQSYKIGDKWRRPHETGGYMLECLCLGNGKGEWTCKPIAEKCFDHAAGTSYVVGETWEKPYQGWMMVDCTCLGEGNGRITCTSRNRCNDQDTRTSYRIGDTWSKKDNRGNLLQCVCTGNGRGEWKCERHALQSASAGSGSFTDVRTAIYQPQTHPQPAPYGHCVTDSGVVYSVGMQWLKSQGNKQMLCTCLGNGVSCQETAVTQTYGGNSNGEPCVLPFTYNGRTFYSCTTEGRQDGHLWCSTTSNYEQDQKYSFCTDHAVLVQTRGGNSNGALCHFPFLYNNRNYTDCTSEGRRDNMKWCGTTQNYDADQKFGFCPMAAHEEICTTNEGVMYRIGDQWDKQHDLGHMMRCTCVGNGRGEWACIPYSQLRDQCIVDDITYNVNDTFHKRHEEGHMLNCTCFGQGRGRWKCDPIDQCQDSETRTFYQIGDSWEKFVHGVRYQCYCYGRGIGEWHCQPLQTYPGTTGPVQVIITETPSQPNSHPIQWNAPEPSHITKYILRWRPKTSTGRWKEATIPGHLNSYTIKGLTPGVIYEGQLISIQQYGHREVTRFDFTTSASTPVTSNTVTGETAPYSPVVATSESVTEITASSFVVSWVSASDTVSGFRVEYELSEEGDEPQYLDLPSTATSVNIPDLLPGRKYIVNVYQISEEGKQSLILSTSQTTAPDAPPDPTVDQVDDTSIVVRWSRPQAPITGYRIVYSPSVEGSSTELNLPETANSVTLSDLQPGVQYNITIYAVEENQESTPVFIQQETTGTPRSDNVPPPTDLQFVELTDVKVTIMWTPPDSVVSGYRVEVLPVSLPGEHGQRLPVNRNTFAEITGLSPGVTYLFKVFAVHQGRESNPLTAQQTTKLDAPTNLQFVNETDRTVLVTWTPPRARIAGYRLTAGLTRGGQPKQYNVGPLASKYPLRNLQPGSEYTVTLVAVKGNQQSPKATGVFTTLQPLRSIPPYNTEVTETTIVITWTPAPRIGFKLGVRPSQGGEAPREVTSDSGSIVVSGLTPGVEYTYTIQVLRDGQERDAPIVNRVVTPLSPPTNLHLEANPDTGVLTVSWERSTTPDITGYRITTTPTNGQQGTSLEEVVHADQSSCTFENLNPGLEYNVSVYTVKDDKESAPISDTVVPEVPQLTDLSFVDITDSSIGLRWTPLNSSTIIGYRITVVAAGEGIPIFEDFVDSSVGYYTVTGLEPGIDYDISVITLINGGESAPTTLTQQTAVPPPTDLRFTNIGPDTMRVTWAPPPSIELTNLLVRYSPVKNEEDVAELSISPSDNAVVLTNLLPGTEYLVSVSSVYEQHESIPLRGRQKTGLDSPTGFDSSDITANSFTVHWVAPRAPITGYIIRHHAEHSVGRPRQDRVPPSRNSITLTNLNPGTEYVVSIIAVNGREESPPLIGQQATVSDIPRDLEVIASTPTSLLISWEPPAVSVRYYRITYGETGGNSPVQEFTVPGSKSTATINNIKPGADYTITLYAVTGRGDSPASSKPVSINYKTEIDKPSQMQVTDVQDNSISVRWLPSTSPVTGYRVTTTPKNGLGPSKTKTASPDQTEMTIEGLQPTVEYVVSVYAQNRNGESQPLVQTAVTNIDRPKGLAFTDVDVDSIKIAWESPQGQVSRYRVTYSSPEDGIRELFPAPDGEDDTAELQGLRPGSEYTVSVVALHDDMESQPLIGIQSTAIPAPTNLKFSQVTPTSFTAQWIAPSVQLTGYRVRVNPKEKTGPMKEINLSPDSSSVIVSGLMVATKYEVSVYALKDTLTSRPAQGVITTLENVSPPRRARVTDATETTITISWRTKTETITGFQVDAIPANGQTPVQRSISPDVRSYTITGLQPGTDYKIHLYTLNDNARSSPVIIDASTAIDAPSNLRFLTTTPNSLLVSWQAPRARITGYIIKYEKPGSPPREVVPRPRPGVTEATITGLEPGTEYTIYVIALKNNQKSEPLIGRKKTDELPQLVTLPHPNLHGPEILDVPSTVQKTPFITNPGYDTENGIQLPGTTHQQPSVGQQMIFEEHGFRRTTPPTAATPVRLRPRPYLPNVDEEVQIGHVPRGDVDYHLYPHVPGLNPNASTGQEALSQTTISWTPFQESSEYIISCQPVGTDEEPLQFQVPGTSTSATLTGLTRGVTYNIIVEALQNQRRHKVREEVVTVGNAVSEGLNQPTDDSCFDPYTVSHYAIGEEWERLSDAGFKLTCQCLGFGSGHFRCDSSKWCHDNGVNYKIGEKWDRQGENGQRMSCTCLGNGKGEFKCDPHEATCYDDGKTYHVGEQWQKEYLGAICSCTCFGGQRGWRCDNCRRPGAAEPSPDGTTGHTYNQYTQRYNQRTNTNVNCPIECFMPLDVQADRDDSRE

Row | spreading area of the adherent fibroblasts on the purified cFN variant (cFN^ΔRGD (mouse)) [µm^2] | spreading area of the few adherent fibroblasts on the purified cFN variant (cFN^RGE (mouse), P11276) [µm^2] | Molecule
1 | 136 | – | α5β1 integrin on pKO-β1 fibroblasts (from UniProt P11688 45-1053; P09055 21-798) (receptor)
2 | – | 419 | α5β1 integrin on pKO-β1 fibroblasts, P11688 45-1053; P09055 21-798 (receptor) chain 1: FNLDAEAPAVLSGPPGSLFGFSVEFYRPGRDGVSVLVGAPKANTSQPGVLQGGAVYVCPWGTSPIQCTTIQFDSKGSRILESSLYSAKGEEPVEYKSLQWFGATVRAHGSSILACAPLYSWRTEKDPQNDPVGTCYLSTENFTRILEYAPCRSDFGSAAGQGYCQGGFSAEFTKTGRVVLGGPGSYFWQGQILSATQEQISESYYPEYLINPVQGQLQTRQASSVYDDSYLGYSVAVGEFSGDDTEDFVAGVPKGNLTYGYVTVLNGSDIHSLYNVSGEQMASYFGYAVAATDTNGDGLDDLLVGAPLLMERTADGRPQEVGRVYIYLQRPAGIDPTPTLTLTGQDEFSRFGSSLTPLGDLDQDGYNDVAIGAPFGGEAQQGVVFIFPGGPGGLSTKPSQVLQPLWAAGRTPDFFGSALRGGRDLDGNGYPDLIVGSFGVDKALVYRGRPIISASASLTIFPSMFNPEERSCSLEGNPVSCINLSFCLNASGKHVPNSIGFEVELQLDWQKQKGGVRRALFLTSKQATLTQTLLIQNGAREDCREMKIYLRNESEFRDKLSPIHIALNFSLDPKAPMDSHGLRPVLHYQSKSRIEDKAQILLDCGEDNICVPDLQLDVYGEKKHVYLGDKNALNLTFHAQNLGEGGAYEAELRVTAPLEAEYSGLVRHPGNFSSLSCDYFAVNQSRQLVCDLGNPMKAGTSLWGGLRFTVPHLQDTKKTIQFDFQILSKNLNNSQSNVVSFPLSVEAQAQVSLNGVSKPEAVIFPVSDWNPQDQPQKEEDLGPAVHHVYELINQGPSSISQGVLELSCPQALEGQQLLYVTKVTGLSNCTSNYTPNSQGLELDPETSPHHLQKREAPGRSSTASGTQVLKCPEAKCFRLRCEFGPLHRQESRSLQLHFRVWAKTFLQREYQPFSLQCEAVYEALKMPYQILPRQLPQKKLQVATAVQWTKAEGSNGVPLWIIILAILFGLLLLGLLIYVLYKLGFFKRSLPYGTAMEKAQLKPPATSDA chain 2: QTDKNRCLKANAKSCGECIQAGPNCGWCTNTTFLQEGMPTSARCDDLEALKKKGCQPSDIENPRGSQTIKKNKNVTNRSKGMAEKLRPEDITQIQPQQLLLKLRSGEPQKFTLKFKRAEDYPIDLYYLMDLSYSMKDDLENVKSLGTDLMNEMRRITSDFRIGFGSFVEKTVMPYISTTPAKLRNPCTSEQNCTSPFSYKNVLSLTDRGEFFNELVGQQRISGNLDSPEGGFDAIMQVAVCGSLIGWRNVTRLLVFSTDAGFHFAGDGKLGGIVLPNDGQCHLENNVYTMSHYYDYPSIAHLVQKLSENNIQTIFAVTEEFQPVYKELKNLIPKSAVGTLSGNSSNVIQLIIDAYNSLSSEVILENSKLPDGVTINYKSYCKNGVNGTGENGRKCSNISIGDEVQFEISITANKCPNKESETIKIKPLGFTEEVEVVLQFICKCNCQSHGIPASPKCHEGNGTFECGACRCNEGRVGRHCECSTDEVNSEDMDAYCRKENSSEICSNNGECVCGQCVCRKRDNTNEIYSGKFCECDNFNCDRSNGLICGGNGVCRCRVCECYPNYTGSACDCSLDTGPCLASNGQICNGRGICECGACKCTDPKFQGPTCETCQTCLGVCAEHKECVQCRAFNKGEKKDTCAQECSHFNLTKVESREKLPQPVQVDPVTHCKEKDIDDCWFYFTYSVNGNNEAIVHVVETPDCPTGPDIIPIVAGVVAGIVLIGLALLLIWKLLMIIHDRREFAKFEKEKMNAKWDTGENPIYKSAVTTVVNPKYEGK

Reference: PMC7644020
